Measured values from PMC7901475.

Molecular target: T1, PsdR (Pseudomonas aeruginosa PAO1?) (UniProt Q9HVS2)
T1 sequence: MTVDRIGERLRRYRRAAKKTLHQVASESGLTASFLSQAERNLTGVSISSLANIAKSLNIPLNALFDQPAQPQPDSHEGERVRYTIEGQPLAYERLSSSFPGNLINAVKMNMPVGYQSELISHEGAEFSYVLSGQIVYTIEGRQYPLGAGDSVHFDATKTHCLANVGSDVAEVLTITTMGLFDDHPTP
Assay: EMSA
Settings: EMSA: 0.5 nM Cy5 probe, 10 mM Tris-HCl pH 8, 50 mM KCl, 10 mM MgCl2, 10% glycerol, 0.1 mg/ml BSA, 25 ng/ul poly(dI-dC), 15 min at 25 C; competition with 100 nM …

CCCGAACCCCTATTTTTAAGTGTGACTGAAAATTTGTTTTGACCTGAATTTAAGCTCGACTTAAATTTCAGCCCGGTCCAGACGAGGAGAACA (double strand) [pPA4498 (mdpA promoter) wild type]
binding: binds

CCCGAACCCCTATTTTTAAGTGTGACTGAAAATTTGTTTTGACCTGAATCAGTTCTCGACTTAAATTTCAGCCCGGTCCAGACGAGGAGAACA (double strand) [pPA4498 (mdpA promoter) half-site mutant]
binding: binds more weakly
